The values that follow come from publication PMC10525234, “Antifungal Action of Arabidopsis thaliana TCP21 via Induction of Oxidative Stress and Apoptosis” (Antioxidants, 2023).

The series deals with the molecule itself. Nature of the series: negative-stain transmission electron microscopy; purified AtTCP21 on a glow-discharged carbon-coated copper grid, negatively stained with 2% uranyl acetate; protein dialyzed against 25 mM HEPES pH 7.2, 150 mM NaCl.

B1: Arabidopsis thaliana TCP21 (natural protein)
chain: not shown
notes: full-length protein expressed from cDNA; also called AtTCP21; recombinant AtTCP21; source: E. coli BL21(DE3), pET28a, purified (Ni-NTA, SEC)
As to B1, the binding result was “binds”.
